In publication PMC3470943, “Identification of BACE2 as an avid ß-amyloid-degrading protease” (Molecular Neurodegeneration, 2012):

Key:
[1] = tested on: net Aß40 and Aß42 levels of CHO cells expressing APP-AP; experiment: Confirmation: co-transfection of BACE2 or BACE1 cDNA with APP-AP, Aß40 and Aß42 ELISA; assay type: cell-based; conditions: CHO cells co-transfected with APP-AP, 4 replicates, normalized to vector-only controls
Protocol: Figure 1 Overview and outcome of functional screening for novel Aß-lowering proteases. A, Cartoon illustrating the overall design of the screen. Briefly, an arrayed collection of 352 protease-encoding cDNAs was cotransfected into CHO cells together with an APP-AP fusion construct. Following a medium change and overnight incubation, Aß40 levels, AP activity, and cytotoxicity (via MTT assay) were analyized in the resulting conditioned media. B, Results of the screen, expressed as [Aß40]/AP ratios normalized to intraplate controls. Data are mean of 4 replicates. Note that the largest decrease in Aß levels by far was acheived by BACE2. C, Confirmation of the results of the screen. Following scale-up and sequence verification, cDNAs encoding BACE2 and its homolog, BACE1, were cotransfected together with APP-AP into CHO cells. […]
Aβ levels were quantified using a sandwich ELISA system based on antibody pairs 33.1.1/13.1.1 for Aβ40 and 2.1.3/4 G8 for Aβ42 as described previously. Conditioned media were supplemented with Complete^TM Protease Inhibitor Cocktail (Roche) just after collection and analyzed immediately. For experiments quantifying intracellular Aß, cells were plated in 96-well plates (2 x 10^4 cells per well) and transfected with BACE2-encoding cDNA or empty vector, washed, then incubated with 400 nM synthetic Aß for 6 h. […]

[2] = tested on: pre-formed fibrils of Aß42; experiment: Thioflavin T fluorescence of pre-formed Aß42 fibrils incubated with BACE2; assay type: biochemical; conditions: BACE2 10 nM, 37°C, up to 3 d / 5 d (legend Figure 2D), 3 replicates
Protocol: Figure 2 BACE2 degrades Aß in vitro. A, Percent Aß remaining following incubation with different concentrations of recombinant BACE2 for various lengths of time. Data are mean ± SEM of 4 replicates, normalized to protease-free controls. B, Comparison the relative Aß-degrading ability of recombinant BACE2 vs. BACE1. Note that 24 h incubation with BACE1 was required to achieve approximately the same extent of degradation as effected by BACE2 in 10 min. Data are mean ± SEM of 3 replicates, normalized to protease-free controls. C, BACE2 activity is pH dependent. Percent Aß degradation catalyzed by equivalent amounts of BACE2 at different pH values. Data are mean ± SEM of 4 replicates. […] Data are mean ± SEM of 3 replicates.
Individual AßDPs can be categorized in terms of their ability or inability to degrade fibrillar forms of Aß. Many well-established AßDPs, such as IDE and NEP, avidly degrade monomeric Aß but cannot degrade fibrillar forms and are therefore categorized as pure peptidases. Others, such as plasmin, degrade Aß fibrils and thus can also be categorized as fibrilases.

[3] = tested on: Aß40 levels produced by CHO cells co-transfected with human APP-AP; experiment: Functional cDNA screen for Aß-lowering proteases, co-transfection with APP-AP; assay type: cell-based, CHO cells (rodent cell line); conditions: protease cDNA 100 ng/well co-transfected with APP-AP 60 ng/well; 24 h conditioned medium; normalized to intra-plate controls; quadruplicate
Protocol: A library of 352 full-length, sequence verified, human cDNAs encoding diverse members of all protease classes was purchase from a commercial source (OriGene Technologies, Inc.) in 96-well format (100 ng/well). For negative and positive controls, a subset of blank wells on each plate were supplemented with empty vector or a construct expressing a well-established AßDP, human ECE1b, respectively (100 ng/well). As a source of human Aß and also as a transfection control, each well was cotransfected with a hybrid construct, APP-AP (60 ng/well), comprised of a vector expressing wild-type human APP fused at its N-terminus with alkaline phosphatase (AP). Additional blank wells were left untreated for cell-free background controls. […]
Following heat treatment to inactivate endogenous phosphatases (65°C for 15 min) present in the media, conditioned media (30 μL/well) was added to 96-well plates containing AP substrate, 4-nitrophenylphosphate (170 μL/well, 2 mg/mL), dissolved in AP buffer (1 M diethanolamine, 0.5 mM MgCl2, 10 mM L-homoarginine, pH 9.8). Plates were incubated for 30 min and AP activity was determined from absorbance (OD405) using a SpectraMax® M5^e multilabel plate reader (Molecular Devices).
Aβ levels were quantified using a sandwich ELISA system based on antibody pairs 33.1.1/13.1.1 for Aβ40 and 2.1.3/4 G8 for Aβ42 as described previously. […]

[4] = tested on: Aß (fluorescent substrate FAβB); experiment: Fluorescence polarization-based Aß degradation assay; assay type: biochemical; conditions: 37°C
Protocol: The kinetics of Aβ40 and Aβ42 degradation by BACE2 were determined using freshly prepared, monomeric Aβ peptides separated from aggregated species by size-exclusion chromatography and characterized as described. Aβ peptides were diluted in neutral Dilution Buffer (20 mM Tris, pH 8.0 supplemented with 0.1% BSA) and reactions were initiated by transfer into 20 times more volume of Assay Buffer supplemented with purified recombinant BACE2 (R&D Systems, nominal concentration 1 or 5 nM) or, as a control for non-specific loss of Aβ, the latter buffer lacking BACE2. Where required, reactions were terminated by supplementation with protease inhibitor cocktail and adjustment to neutral pH. For ELISA-based experiments, Aβ42 and Aβ40 were quantified using the sandwich ELISAs described above. […] For determination of the pH dependence of Aβ degradation, experiments were carried same as described above, using Assay Buffer at different pH values (3.0, 3.5, 4.0, 4.5, 5.0, 5.5). The reactions were stopped at 10 min and the remaining 200nM of Aβ was determined using a well-characterized fluorescence polarization-based activity Aß degradation assay, as described. […] The degree of Aβ hydrolysis was immediately determined using a polarization-based Aß degradation assay. […]

B1: BACE2: ß-site APP-cleaving enzyme-2, aspartyl protease; recombinant enzyme (R&D Systems) or transfected human cDNA (protein, UniProt Q9Y5Z0 63-518, looked up)
Beta-secretase 2: ALEPALASPAGAANFLAMVDNLQGDSGRGYYLEMLIGTPPQKLQILVDTGSSNFAVAGTPHSYIDTYFDTERSSTYRSKGFDVTVKYTQGSWTGFVGEDLVTIPKGFNTSFLVNIATIFESENFFLPGIKWNGILGLAYATLAKPSSSLETFFDSLVTQANIPNVFSMQMCGAGLPVAGSGTNGGSLVLGGIEPSLYKGDIWYTPIKEEWYYQIEILKLEIGGQSLNLDCREYNADKAIVDSGTTLLRLPQKVFDAVVEAVARASLIPEFSDGFWTGSQLACWTNSETPWSYFPKISIYLRDENSSRSFRITILPQLYIQPMMGAGLNYECYRFGISPSTNALVIGATVMEGFYVIFDRAQKRVGFAASPCAEIAGAAVSEISGPFSTEDVASNCVPAQSLSEPILWIVSYALMSVCGAILLVLIVLLLLPFRCQRRPRDPEVVNDESSLVRHRWK
effect of overexpression on net Aß40 and Aß42 levels [1]: decreased the levels of both Aβ40 and Aβ42
effect on aggregation of pre-formed Aß42 fibrils [2]: No significant reduction in aggregation
decrease in normalized Aß levels ([Aß40]/AP ratio) [3]: 97 ± 1.2%
pH of maximal Aß40 hydrolysis ([4]; Assay Buffer at pH 3.0, 3.5, 4.0, 4.5, 5.0, 5.5, 200 nM Aβ, stopped at 10 min, 4 replicates): 3.5

B2: BACE1: ß-site APP-cleaving enzyme-1, homolog of BACE2; recombinant enzyme or transfected cDNA (protein, UniProt P56817 46-501, looked up)
Beta-secretase 1: ETDEEPEEPGRRGSFVEMVDNLRGKSGQGYYVEMTVGSPPQTLNILVDTGSSNFAVGAAPHPFLHRYYQRQLSSTYRDLRKGVYVPYTQGKWEGELGTDLVSIPHGPNVTVRANIAAITESDKFFINGSNWEGILGLAYAEIARPDDSLEPFFDSLVKQTHVPNLFSLQLCGAGFPLNQSEVLASVGGSMIIGGIDHSLYTGSLWYTPIRREWYYEVIIVRVEINGQDLKMDCKEYNYDKSIVDSGTTNLRLPKKVFEAAVKSIKAASSTEKFPDGFWLGEQLVCWQAGTTPWNIFPVISLYLMGEVTNQSFRITILPQQYLRPVEDVATSQDDCYKFAISQSSTGTVMGAVIMEGFYVVFDRARKRIGFAVSACHVHDEFRTAAVEGPFVTLDMEDCGYNIPQTDESTLMTIAYVMAAICALFMLPLCLMVCQWRCLRCLRQQHDDFADDISLLK
effect of overexpression on net Aß40 and Aß42 levels [1]: no effect
efficiency of Aß degradation, fold lower than that of BACE2 ([4]; BACE1 24 h vs BACE2 10 min for a similar extent of degradation, Assay Buffer pH 4.0): ~ 150 fold
